The target in this assay is native Pf AMA-1 on P. falciparum parasites (strain not specified) (Plasmodium falciparum). In words: cell-based or functional assay.

rat monoclonal antibody 4G2 yielded an inhibition of invasion of 50 to 60%.

The values are drawn from US7910330.
